The target in the experiment is recombinant OsLIKE1-KD from E. coli (GST-OsLIKE1-KD and OsLIKE1-KD-His) (rice). Briefly: native gel or EMSA. A general note: In EMSA bound probe runs differently from free probe, usually more slowly.

Regarding “recombinant OsLIKE1-KD from E. coli (GST-OsLIKE1-KD and OsLIKE1-KD-His) (domain or fragment)”, the stoichiometry N stood at 2.

By stoichiometry N is commonly meant a count of units in the complex or per binding partner.

The values are drawn from article PMC12823590.
